Non-standard residues stand in square brackets, D forms with d. Primed or numbered codes have the meaning given here. No end group written: not given here. *: point of attachment. FITC′ = fluorescein isothiocyanate (fluorescein label attached to the Lys side chain); FITC″ = fluorescein isothiocyanate, fluorescein thiocarbamoyl on Lys NZ; FITC = O=C1OC2(c3ccc(O)cc3Oc3cc(O)ccc32)c2ccc(NC(=S)*)cc21; Benzoyl(2,3-Cl2) = O=C(c1cccc(Cl)c1Cl)*; Phe(4-F) = N[C@@H](Cc1ccc(F)cc1)C(=O)O; Tle = CC(C)(C)[C@H](N)C(=O)O; acyl = not defined here; Bz = O=C(c1ccccc1)*; βAla = NCCC(=O)O
B1: CNI93 (peptide)
peptide: XIXITQHLSXKFXRRRRQ
modifications: not fully specified; sequence of peptide 14 (Dcb-ZIZIT-Gln-His-leu-Ser) with cyclic CPP9, cyclo(fΦRrRrQ), attached to the C-terminus through an amide bond and a βAla-Lys linker; Z = Tle; D-Leu
notes: A biotinylated form was used in the macrophage experiment
B2: peptide 12: Dcb-ZIZIT-miniPEG-Lys (FITC) (peptide)
peptide: {Benzoyl(2,3-Cl2)}-[Tle]I[Tle]IT[miniPEG]K(FITC′)
B3: compound 44 (CNI104): (DCNA)-Tle-Chg-Bhv-Ile-Thr-Gln-His-(D-Leu)-Ser-βAla-Lys{[cyclo-(Gln-(D-Arg)-Arg-(D-Arg)-Arg-(2-Nal)-(D-Phe)]}-NH2 (peptide)
peptide: XXXITQHLSXKQRRRRXF
modifications: not fully specified; N-terminal DCNA (2,3-dichlorisonicotinamide); Tle; Chg = L-cyclohexylglycine; Bhv = L-β-hydroxyvaline; D-Leu; βAla; Lys side chain carrying cyclo-(Gln-(D-Arg)-Arg-(D-Arg)-Arg-(2-Nal)-(D-Phe)); C-terminal amide
B4: CNI95 labeled at the C-terminus with FITC (peptide)
peptide: XIXITQHLSKFXRRRRQ
modifications: not fully specified; sequence of peptide 14 (Dcb-ZIZIT-Gln-His-leu-Ser) conjugated to CPP9, cyclo(fΦRrRrQ), through a miniPEG-Lys linker; FITC at the C-terminus; Z = Tle; D-Leu
notes: also called FITC-labeled CNI95
B5: CNI95 (unlabeled) (peptide)
peptide: XIXITQHLSKFXRRRRQ
modifications: not fully specified; sequence of peptide 14 (Dcb-ZIZIT-Gln-His-leu-Ser) conjugated to CPP9, cyclo(fΦRrRrQ), through a miniPEG-Lys linker; Z = Tle; D-Leu
B6: CNI103: (DCNA)-Tle-Ile-Bhv-Ile-Thr-Gln-His-(D-Leu)-Ser-miniPEG-Lys{[cyclo-(Gln-(D-Arg)-Arg-(D-Arg)-Arg-(2-Nal)-(D-Phe)]}-NH2 (peptide)
peptide: XIXITQHLSKQRRRRXF
modifications: not fully specified; N-terminal DCNA (2,3-dichlorisonicotinamide; Table 8 prints DCN); Tle at 1; Bhv = L-β-hydroxyvaline at 3 (Table 8 prints Hva); D-Leu; miniPEG; Lys side chain carrying cyclo-(Gln-(D-Arg)-Arg-(D-Arg)-Arg-(2-Nal)-(D-Phe)); C-terminal amide
notes: also called CN103; compound 43
B7: peptide 1: Ac-GPHPZIZITGPHEEYK(FITC)-NH2 (peptide)
peptide: Ac-GPHP[Tle]I[Tle]ITGPHEEYK(FITC″)-NH2
B8: peptide 10: acyl-ZIZITGPHEEYK(FITC)-NH2 (peptide)
peptide: [Tle]I[Tle]ITGPHEEYK(FITC)-NH2
modifications: not fully specified (N-terminus); printed as acyl-ZIZITGPHEEYK(FITC)-NH2; also: N-terminal acyl group unspecified (halogenated/alkylated benzoyl, drawing only)
B9: peptide 11: acyl-ZIZITGPHEEYK(FITC)-NH2 (peptide)
peptide: [Tle]I[Tle]ITGPHEEYK(FITC)-NH2
modifications: not fully specified (N-terminus); printed as acyl-ZIZITGPHEEYK(FITC)-NH2; also: N-terminal acyl group unspecified (halogenated/alkylated benzoyl, drawing only)
B10: peptide 13: Dcb-ZIZIT-Tyr-glu-Fpa-Gly-βAla-Lys (FITC) (peptide)
peptide: {Benzoyl(2,3-Cl2)}-[Tle]I[Tle]ITY[dE][Phe(4-F)]G[βAla]K(FITC)
B11: peptide 14: Dcb-ZIZIT-Gln-His-leu-Ser-βAla-Lys (FITC) (peptide)
peptide: {Benzoyl(2,3-Cl2)}-[Tle]I[Tle]ITQH[dL]S[βAla]K(FITC″)
notes: also called FITC-labeled peptide 14
B12: peptide 15: Dcb-ZIZIT-Gln-His-leu-His-βAla-Lys (FITC) (peptide)
peptide: {Benzoyl(2,3-Cl2)}-[Tle]I[Tle]ITQH[dL]H[βAla]K(FITC″)
B13: peptide 2: benzoyl-ZIZITGPHEEYK(FITC)-NH2 (peptide)
peptide: Bz-[Tle]I[Tle]ITGPHEEYK(FITC″)-NH2
B14: peptide 3: cyclopentylcarbonyl-ZIZITGPHEEYK(FITC)-NH2 (peptide)
peptide: cyclopentylcarbonyl-[Tle]I[Tle]ITGPHEEYK(FITC″)-NH2
B15: peptide 4: cyclohexylcarbonyl-ZIZITGPHEEYK(FITC)-NH2 (peptide)
peptide: cyclohexylcarbonyl-[Tle]I[Tle]ITGPHEEYK(FITC″)-NH2
B16: peptide 7: acyl-ZIZITGPHEEYK(FITC)-NH2 (peptide)
peptide: acyl-[Tle]I[Tle]ITGPHEEYK(FITC″)-NH2
modifications: reading uncertain; also: N-terminal acyl: halogenated and/or alkylated benzoyl, not named, printed as peptide 7: acyl-ZIZITGPHEEYK(FITC)-NH2
B17: peptide 8: acyl-ZIZITGPHEEYK(FITC)-NH2 (peptide)
peptide: acyl-[Tle]I[Tle]ITGPHEEYK(FITC″)-NH2
modifications: reading uncertain; also: N-terminal acyl: halogenated and/or alkylated benzoyl, not named, printed as peptide 8: acyl-ZIZITGPHEEYK(FITC)-NH2
B18: peptide 9: Dcb-ZIZITGPHEEYK(FITC)-NH2 (peptide)
peptide: {Benzoyl(2,3-Cl2)}-[Tle]I[Tle]ITGPHEEYK(FITC″)-NH2
B19: control: (DCB)-Tle-Ile-Tle-Ile-Thr-Gln-His-(D-Leu)-Ser-(β-Ala)-Lys{[cyclo-(Gln-(D-Arg)-Arg-(D-Arg)-Arg-(2-Nal)-(D-Phe)]}-NH2 (peptide)
peptide: XIXITQHLSXKQRRRRXF
modifications: not fully specified; N-terminal DCB (2,3-dichlorobenzoyl); Tle at 1 and 3; D-Leu; β-Ala; Lys side chain carrying cyclo-(Gln-(D-Arg)-Arg-(D-Arg)-Arg-(2-Nal)-(D-Phe)); C-terminal amide
notes: It is therefore kept as a separate molecule
B20: CNI101: (DCNA)-Tle-Ile-Tle-Ile-Thr-Gln-His-(D-Leu)-Ser-miniPEG-Lys{[cyclo-(Gln-(D-Arg)-Arg-(D-Arg)-Arg-(2-Nal)-(D-Phe)]}-NH2 (peptide)
peptide: XIXITQHLSKQRRRRXF
modifications: not fully specified; N-terminal DCNA (2,3-dichlorisonicotinamide; Table 8 prints DCN, 2,3-dichloro-4-pyridinyl); Tle at 1 and 3; D-Leu; miniPEG; Lys side chain carrying cyclo-(Gln-(D-Arg)-Arg-(D-Arg)-Arg-(2-Nal)-(D-Phe)); C-terminal amide
notes: also called compound 41; 41
B21: CNI88 (peptide)
peptide: XIXITYEXGAKFXRRRRQ
modifications: not fully specified; sequence of peptide 13 (Dcb-ZIZIT-Tyr-glu-Fpa-Gly) with cyclic CPP9, cyclo(fΦRrRrQ), attached to the C-terminus through an amide bond and a βAla-Lys linker; Z = Tle; D-Glu; Fpa = …
B22: compound 45: (DCNA)-Tle-Chg-Bhv-Ile-Thr-Gln-His-(D-Leu)-Ser-miniPEG-Lys{[cyclo-(Gln-(D-Arg)-Arg-(D-Arg)-Arg-(2-Nal)-(D-Phe)]}-NH2 (peptide)
peptide: XXXITQHLSKQRRRRXF
modifications: not fully specified; N-terminal DCNA; Tle; Chg = L-cyclohexylglycine; Bhv = L-β-hydroxyvaline; D-Leu; miniPEG; Lys side chain carrying cyclo-(Gln-(D-Arg)-Arg-(D-Arg)-Arg-(2-Nal)-(D-Phe)); C-terminal amide
B23: compound 46: (DCNA)-Tle-Ile-Psa-Ile-Thr-Gln-His-(D-Leu)-Ser-miniPEG-Lys{[cyclo-(Gln-(D-Arg)-Arg-(D-Arg)-Arg-(2-Nal)-(D-Phe)]}-NH2 (peptide)
peptide: XIXITQHLSKQRRRRXF
modifications: not fully specified; N-terminal DCNA; Tle; Psa = L-penicillamine sulfonic acid; D-Leu; miniPEG; Lys side chain carrying cyclo-(Gln-(D-Arg)-Arg-(D-Arg)-Arg-(2-Nal)-(D-Phe)); C-terminal amide
B24: compound 48: (DFNA)-Tle-Ile-Bhv-Ile-Thr-Gln-His-(D-Leu)-Ser-miniPEG-Lys{[cyclo-(Gln-(D-Arg)-Arg-(D-Arg)-Arg-(2-Nal)-(D-Phe)]}-NH2 (peptide)
peptide: XIXITQHLSKQRRRRXF
modifications: not fully specified; N-terminal DFNA (2,3-difluoroisonicotinamide); Tle; Bhv = L-β-hydroxyvaline; D-Leu; miniPEG; Lys side chain carrying cyclo-(Gln-(D-Arg)-Arg-(D-Arg)-Arg-(2-Nal)-(D-Phe)); C-terminal amide
B25: compound 51: (DFNA)-Tle-Chg-Psa-Ile-Thr-Gln-His-(D-Leu)-Ser-miniPEG-Lys{[cyclo-(Gln-(D-Arg)-Arg-(D-Arg)-Arg-(2-Nal)-(D-Phe)]}-NH2 (peptide)
peptide: XXXITQHLSKQRRRRXF
modifications: not fully specified; N-terminal DFNA (2,3-difluoroisonicotinamide); Tle; Chg = L-cyclohexylglycine; Psa = L-penicillamine sulfonic acid; D-Leu; miniPEG; Lys side chain carrying cyclo-(Gln-(D-Arg)-Arg-(D-Arg)-Arg-(2-Nal)-(D-Phe)); C-terminal amide

Molecular target: T1, calcineurin expressed as the glutathione S-transferase fusion protein (GST-CN) (UniProt Q08209 2-347)
T1 construct: also called CN-GST; recombinant GST-CN; not shown: glutathione S-transferase (GST) fusion partner
Assay: direct binding by FA
Method: (§1) Fluorescence Polarization. Fluorescence polarization (FP) experiments were carried out to measure binding affinity in both direct and competitive binding experiments using GST-CN and peptides prepared as mentioned previously. […] Solutions were incubated for 1 h at RT with gentle mixing and then pipetted into black 384-well microplates. Fluorescence polarization was measured on a TECAN Infinite M1000 plate reader and titration curves were fitted using both KaelidaGraph v 3.6 and GraphPad PRISM to the equation: […]

T1 sequence (Q08209 2-347): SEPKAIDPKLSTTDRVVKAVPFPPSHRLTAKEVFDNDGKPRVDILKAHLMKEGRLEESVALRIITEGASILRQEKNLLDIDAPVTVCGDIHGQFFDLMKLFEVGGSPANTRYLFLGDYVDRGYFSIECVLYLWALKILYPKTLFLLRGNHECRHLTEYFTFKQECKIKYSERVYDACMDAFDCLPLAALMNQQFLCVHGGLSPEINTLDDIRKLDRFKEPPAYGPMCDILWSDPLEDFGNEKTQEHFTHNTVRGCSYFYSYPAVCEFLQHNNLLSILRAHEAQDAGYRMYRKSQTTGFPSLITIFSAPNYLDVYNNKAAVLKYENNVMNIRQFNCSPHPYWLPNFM

Binder | fold lower CN-binding affinity (relative to peptide 14) [fold]
B1 | 8

Molecular target: T1, calcineurin expressed as the …
Assay: fluorescence anisotropy (FA), direct binding

Binder | fold decrease in binding affinity (relative to peptide 9) [fold]
B2 | 17

Molecular target: T1, calcineurin expressed as the …
Assay: FP competition with FITC-labeled compound 35 for GST-CN
Method: (§2) Serial dilutions of unlabeled inhibitor were prepared in pH 7.4 PBS containing 0.01% Triton-X100, to which was added the incubation solution and mixed for 1 h at RT. 20 μL aliquots from each concentration were added into 384-well black-on-black microplates and fluorescence polarization was measured using a TECAN Infinite M1000 plate reader. IC50 values were calculated using GraphPad PRISM v. 7.

Binder | fold higher potency (relative to CNI103) [fold]
B3 | ~5

Molecular target: T1, calcineurin expressed as the …
Assay: fluorescence anisotropy (FA), direct binding of FITC-labeled peptide
Method: as §1
(§3) Additional characterization of CNI95 (including in vivo evaluation) is currently ongoing.

Binder | Kd [nM]
B4 | 17

Molecular target: T1, calcineurin expressed as the …
Assay: FA-based competition assay, inhibition of the binding of peptide 14 to CN
Method: (§4) Serial dilutions of competitor peptides were prepared in PBS with 0.01% Trition-X100 and then added to the incubation solution and equilibrated at RT with gentle mixing for 1 h. Samples were pipetted into 384-well black microplates and FP signal was measured using a TECAN Infinite M1000 plate reader and analyzed using GraphPad PRISM v.6.
as §3

Binder | fold higher potency (relative to CNI93) [fold]
B5 | ~5

Molecular target: mouse plasma proteins
Assay: rapid equilibrium dialysis (RED) of CNI103 in mouse plasma, 37° C., 5 hours, LC/MS/MS

Binder | % Binding [%]
B6 | 97.6

Molecular target: T1, calcineurin expressed as the …
Assay: fluorescence anisotropy (FA), direct binding of FITC-labeled peptide to GST-CN
Method: as §1

Binder | Kd [nM]
B7 | 92
B8 | 189
B9 | 77
B2 | 700
B10 | 12
B11 | 9.1
B12 | 4.7
B13 | 224
B14 | 357
B15 | 207
B16 | 32
B17 | 74
B18 | 41

Molecular target: T1, calcineurin expressed as the …
Assay: FP competition (Condition E): 50 nM probe, 50 nM CN-GST, unlabeled compound titrated
Method: Binding Affinity. […] Serial dilutions of each unlabeled compound were prepared in pH 7.4 PBS containing 0.01% Triton-X100, to which was added the incubation solution and mixed for 1 hr at RT after which 20 μL sample was pipetted into 384-well black-on-black microplates and fluorescence polarization was measured using a TECAN Infinite M1000 plate reader. IC₅₀ values were calculated using GraphPad PRISM v.

Binder | IC50 [nM]
B6 | 223
B19 | 857
B20 | 184

Molecular target: T1, calcineurin expressed as the …
Assay: FA-based competition (FP): 50 nM FITC-labeled peptide 14 as probe, 100 nM GST-CN, competitor titrated
Method: as §4

Binder | IC50 [nM]
B21 | 426
B1 | 127

Molecular target: T1, calcineurin expressed as the …
Assay: FP competition: 15 nM FITC-labeled compound 35 as probe, 15 nM GST-CN, unlabeled inhibitor titrated
Method: as §2

Binder | IC50 [nM]
B6 | 223
B20 | 184
B3 | 44.9
B22 | 45.6
B23 | 107
B24 | 73.5
B25 | 96.5
